One data set addresses T1, E3 ELP [(VPGXG)10-GKG]8 (synthetic construct).
T1 chain: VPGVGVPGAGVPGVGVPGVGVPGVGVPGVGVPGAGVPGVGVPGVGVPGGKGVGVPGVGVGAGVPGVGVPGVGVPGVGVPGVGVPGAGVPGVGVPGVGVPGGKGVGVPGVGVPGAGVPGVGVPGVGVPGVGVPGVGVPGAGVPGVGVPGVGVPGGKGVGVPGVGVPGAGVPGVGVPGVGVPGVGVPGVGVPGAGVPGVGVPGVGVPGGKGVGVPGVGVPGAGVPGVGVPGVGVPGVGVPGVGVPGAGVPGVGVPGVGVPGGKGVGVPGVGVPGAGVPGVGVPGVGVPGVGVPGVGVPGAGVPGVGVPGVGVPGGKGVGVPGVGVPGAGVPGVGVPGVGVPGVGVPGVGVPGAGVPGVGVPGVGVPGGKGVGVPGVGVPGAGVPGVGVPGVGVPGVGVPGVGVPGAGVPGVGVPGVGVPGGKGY
As to the kind of experiment: coacervate partitioning at 55 C, no added NaCl, 100 mM sodium phosphate pH 7.0; 100 mM NaCl leaves much more DNA in dilute phase. The conditions noted are these: label: 5'-Cy3. An excerpt:
Across all t=0 samples at room temperature (T<Tt) no E3 condensates are observed (FIG. 3, A1 and D1) and all solution components are miscible and evenly distributed throughout the droplet volume (FIG. 3, A2, D2, A3 and D3). The incipient stages of thermally triggered E3 phase transition occur simultaneously throughout droplet volumes, corroborating demixing through spinodal decomposition for both +NaCl and −NaCl samples (FIG. 3, B1 and E1). […] Note that the recruitment of ssDNA-Cy3 into the E3 rich condensates is E3 concentration dependent. By contrast, addition of NaCl results in electrostatic shielding, partitioning more ssDNA-Cy3 in the solvent-rich phase (FIG. 3, B2 and C2). The combined E3 phase behavior and ssDNA-Cy3 partitioning for −NaCl and +NaCl is further evidenced by inspection of the merged brightfield and fluorescence microscopy images of FIG. 3, panels A3-F3.
To image the process of temperature-mediated E3 coacervation and interaction with DNA-Cy3, an Olympus IX83 fluorescence microscope (Olympus Life Science Technology Division, Center Valley, PA) was equipped with a Physitemp cooling and heating stage (TS4-MP/ER/PTU, Clifton, NJ) fitted with a temperature controller. Microfluidic droplets were generated using previously described methods and droplet generator. […]

The target in the next data set is T2, H-20 His-ELP (synthetic construct).
T2 chain: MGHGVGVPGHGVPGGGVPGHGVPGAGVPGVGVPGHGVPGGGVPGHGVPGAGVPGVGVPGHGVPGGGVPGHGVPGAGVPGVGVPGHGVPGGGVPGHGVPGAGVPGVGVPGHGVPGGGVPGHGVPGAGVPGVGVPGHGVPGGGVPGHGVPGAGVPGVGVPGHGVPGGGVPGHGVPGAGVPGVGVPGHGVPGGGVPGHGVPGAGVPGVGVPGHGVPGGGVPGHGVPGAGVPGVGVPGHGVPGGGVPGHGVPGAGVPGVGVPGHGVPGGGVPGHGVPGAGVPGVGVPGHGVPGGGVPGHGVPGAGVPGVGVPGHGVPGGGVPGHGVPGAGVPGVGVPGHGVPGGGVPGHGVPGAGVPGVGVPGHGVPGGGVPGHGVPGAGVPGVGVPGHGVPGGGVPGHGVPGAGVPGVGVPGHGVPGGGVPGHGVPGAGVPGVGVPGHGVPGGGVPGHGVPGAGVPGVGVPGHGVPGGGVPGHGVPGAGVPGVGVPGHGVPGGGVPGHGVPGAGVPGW
As to the kind of experiment: EMSA; pH 6, room temperature, 0.1-100 uM; weaker than H-24. As for the experimental part:
(§1) According to the prediction of His-ELP charge as a function of pH (FIG. 1l A), at pH 6, H-20 (SEQ. ID. NO. 8) is expected to have a charge of ≈+33 and H-24 (SEQ. ID. NO. 9) is expected to have a greater charge of ≈+39 as it has more histidines in its sequence. The primary association between His-ELPs and NAs is via electrostatic interactions; thus, the protein with greater charge is expected to have a more robust binding activity. Gel retardation assays were performed to analyze the binding activity of the His-ELPs (and another ELP with 8 cationic lysine charges, E3) with tRNA and ssDNA as a function of protein concentration at pH 6 (FIG. 12). Binding and gel electrophoresis were conducted at room temperature, below the Tt of each of the proteins, and for both tRNA and ssDNA, the degree of NA migration retardation was dependent on protein concentration (see FIG. 4).
(In general: Mobility shift assays separate free from complexed probe on a gel.)

Another data set has as its target T3, H-24 His-ELP (synthetic construct).
T3 chain: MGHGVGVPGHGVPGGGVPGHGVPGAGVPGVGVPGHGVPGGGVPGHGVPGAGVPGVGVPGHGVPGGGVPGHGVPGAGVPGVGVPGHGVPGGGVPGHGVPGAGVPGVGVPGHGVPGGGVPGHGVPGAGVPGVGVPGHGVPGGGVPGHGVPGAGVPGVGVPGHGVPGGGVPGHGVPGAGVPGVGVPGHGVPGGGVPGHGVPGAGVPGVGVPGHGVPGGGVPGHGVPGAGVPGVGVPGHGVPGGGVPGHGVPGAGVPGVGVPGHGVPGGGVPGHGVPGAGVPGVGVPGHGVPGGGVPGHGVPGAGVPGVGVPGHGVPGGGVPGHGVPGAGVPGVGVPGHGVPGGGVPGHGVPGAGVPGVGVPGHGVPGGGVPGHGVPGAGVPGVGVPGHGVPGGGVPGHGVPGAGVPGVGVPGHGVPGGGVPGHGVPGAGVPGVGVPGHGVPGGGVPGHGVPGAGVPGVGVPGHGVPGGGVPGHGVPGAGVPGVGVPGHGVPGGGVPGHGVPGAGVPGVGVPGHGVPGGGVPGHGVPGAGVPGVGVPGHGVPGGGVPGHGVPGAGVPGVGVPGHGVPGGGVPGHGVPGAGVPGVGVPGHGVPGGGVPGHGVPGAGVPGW
The data set can be described thus: EMSA; pH 6, room temperature, 0.1-100 uM. Here is the method:
as §1

B1: Cy3-ssDNA (DNA-Cy3) (ssDNA)
DNA: TTTTTCCTAGAGAGTAGAGCCTGCTTCG
With B1, the binding result with E3 ELP [(VPGXG)10-GKG]8 was “binds”.

B2: ssDNA 28 nt (ssDNA)
DNA: TTTTTCCTAGAGAGTAGAGCCTGCTTCG
B2: the binding result in the data set with H-20 His-ELP and with H-24 His-ELP was “binds” throughout.

Source of the values: US20230407367, “INTRINSICALLY DISORDERED PROTEINS FOR EXTRACTION OF NUCLEIC ACIDS” (published 2023).
